# ± gives the standard deviation of the averaged measurements.
# System: Saccharomyces cerevisiae
# Assay: protein stability index of tFT-peptide fusion (C-terminal peptide) (PSI (0-1 scale)); higher = more stable (slower turnover)
# Details: genetic background: wild type; temperature: 30 C
# 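Note: PSI is a weighted mean of sequencing reads over stability bins, variants kept only with over 10 reads, mCherry proximal and sfGFP distal, peptide attached via GGGS linker.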
row,Sequence,protein stability index
1,SPPSHPHRPTFP,0.753 ± 0.28
2,KKEPEKEQQNKE,0.746 ± 0.097
3,SSNSSFFIWGLV,0.7119 ± 0.00078
4,ERCQGGSGVLIR,0.638 ± 0.1
5,ACPPRPPFRSPS,0.698 ± 0.026
6,PPSGPTDTQEQG,0.661 ± 0.035
7,LTKPPHERREKS,0.635 ± 0.019
8,PPATTPASTNLQ,0.7 ± 0.017
9,SSNLLFCSIFYV,0.6181 ± 0.0021
10,LSWLSLSSNSRL,0.798 ± 0.019
11,GGFGSCVGHVLG,0.735 ± 0.077
12,FPLPPPPSLSTP,0.656 ± 0.036
13,TAVIRASRFEEI,0.672 ± 0.0055
14,SSLTTCFLSFPP,0.668 ± 0.066
15,HRPTRLIKKNLA,0.732 ± 0.033
16,RVLSVRFRIGRE,0.636 ± 0.061
17,SLPPSRSPSPTL,0.665 ± 0.13
18,PLPPPAIPRLCA,0.636 ± 0.029
19,QAVVGRVRLRGE,0.6775 ± 0.0017
20,TPGGPLLHSGFL,0.755 ± 0.085
21,GEGHGGMLDVVM,0.686 ± 0.066
22,PPPPPPVRSLPL,0.72 ± 0.088
23,RCRKVSTISRFK,0.7053 ± 0.002
24,YSFFTLCLSLPA,0.557 ± 0.025
25,ENDKPITRKETQ,0.605 ± 0.07
26,TGMRRLPGEVCV,0.581 ± 0.017

row,Sequence,protein stability index
1,EKIRSNIIKLEE,0.64 ± 0.097
2,STVPSLVAGATF,0.729 ± 0.11
3,PLRLLSTPSPLS,0.755 ± 0.049
4,ILEGFRHVSPVG,0.717 ± 0.085
5,CSPSDCGWQLVL,0.604 ± 0.09
6,GGEVFGGRCSAV,0.734 ± 0.12
7,WFCSVICGVFSV,0.5678 ± 0.00093
8,LDVAFLMSRFSS,0.731 ± 0.024
9,SGCVLCLCCYMV,0.666 ± 0.015
10,PPPPLLRSPLHL,0.731 ± 0.011
11,PQAQCTALLTQR,0.659 ± 0.085
12,GTVGTGFGGGVE,0.677 ± 0.12
13,SCFFFSWIRGFC,0.598 ± 0.032
14,RGGFVEGFVLVR,0.611 ± 0.073
15,GLFVSLRGLSLS,0.71 ± 0.044
16,VRGGGRARRRGS,0.7347 ± 0.0044
17,LRIGTCYCGVAW,0.814 ± 0.049
18,SVSRTARELREV,0.65902 ± 0.00035
19,ALGGPPLSPSPH,0.7299 ± 0.007
20,DLSAGKWSRSSD,0.689 ± 0.023
21,PPHPPNPLPTPQ,0.829 ± 0.17
22,GGAGAGHDPRRN,0.705 ± 0.019
23,EPLGSGLQCTAG,0.731 ± 0.005
24,KETLRMKFNSWK,0.6764 ± 0.0043
25,LLRALPSYRPFP,0.696 ± 0.016
26,DWGRRGGALAVI,0.641 ± 0.012

row,Sequence,protein stability index
1,GGGAGGRQGCGG,0.771 ± 0.027
2,GYGSSVYAVQKL,0.608 ± 0.0096
3,NSIHRTRPKKII,0.641 ± 0.0048
4,NPPPPAHYSRPP,0.73 ± 0.031
5,SGRTQPRGKHNA,0.683 ± 0.016
6,TPGLVRVGSVSF,0.708 ± 0.017
7,SPARPPFPPPPL,0.72 ± 0.029
8,KRKEKAKRTKHV,0.641 ± 0.035
9,VSWRGSFQGIYG,0.685 ± 0.043
10,SRFLPPSHLLPP,0.738 ± 0.093
11,PPPAPPCRLMSP,0.719 ± 0.059
12,PPPTSSALPALV,0.736 ± 0.037
13,AGFCRVFSYDFV,0.708 ± 0.04
14,KKKKKKNKKEKK,0.689 ± 0.12
15,SPPPPSRPTLPP,0.593 ± 0.011
16,GQRWADGGFVEV,0.783 ± 0.1
17,HSRTLTQKKTNN,0.715 ± 0.038
18,QTKSLLTPLLNL,0.65 ± 0.018
19,TRCKLALEKLVG,0.5986 ± 0.0015
20,TRRGAAAEDQEK,0.697 ± 0.065
21,VRTLVGQVWETV,0.721 ± 0.031
22,FPPLLFPPTPTR,0.842 ± 0.027
23,RIGELRYATQMK,0.676 ± 0.052
24,APPFRLLPLPSP,0.7573 ± 0.005
25,DLFLTSSCPCLC,0.55106 ± 4.5e-05
26,PSNPTPLTLLLF,0.641 ± 0.017

row,Sequence,protein stability index
1,SPCLLPPPRSSP,0.737 ± 0.027
2,RKNNKKKENKKK,0.7954 ± 0.0014
3,VMVNTAWERRKR,0.673 ± 0.065
4,DGKGLRATWQWS,0.737 ± 0.037
5,DIHLSRQKTRIL,0.752 ± 0.17
6,LPPPPPCPPSPL,0.671 ± 0.024
7,LLPCLSSLPPLP,0.7 ± 0.064
8,TLKMKHKPKKNL,0.6583 ± 0.0035
9,LQALQTKPSQAL,0.688 ± 0.083
10,PLPSPASPSPPP,0.67 ± 0.12
11,LVCMGCCVRTYT,0.608 ± 0.037
12,LRVTPYTPRSYP,0.732 ± 0.058
13,KLKACRIHEENR,0.676 ± 0.019
14,GMLGVGGYGGLW,0.717 ± 0.078
15,GVDGGGKWRGWG,0.651 ± 0.06
16,PAAPFFPSLRLL,0.711 ± 0.03
17,LGGGAGLRCGGF,0.673 ± 0.02
18,RPRKTVTDLMAG,0.663 ± 0.01
19,NKKKYEIKLIME,0.641 ± 0.06
20,VVLFCPFISSED,0.726 ± 0.012
21,SCSGTIGVYENP,0.684 ± 0.024
22,SCVSDAKMGGLG,0.655 ± 0.084
23,TTQEPTPLAQEQ,0.713 ± 0.024
24,SSWEMMLYRLTE,0.693 ± 0.021
25,VIGSSGRVGGLG,0.6913 ± 0.0028
26,PSPSFPPPPLSR,0.721 ± 0.073

row,Sequence,protein stability index
1,ICRGLTVPGVAI,0.612 ± 0.0095
2,VGMAGWSRVRWG,0.715 ± 0.0089
3,SRNKLNSIIIEK,0.608 ± 0.046
4,RAALEAPGCIQV,0.73316 ± 3e-05
5,PSPPFPPPPPPE,0.717 ± 0.047
6,GGRTRPGGLSRP,0.678 ± 0.035
7,PSSLFPPPPSVL,0.685 ± 0.029
8,GGPGGGGVSDGM,0.804 ± 0.14
9,GILRGSKKVDPP,0.622 ± 0.029
10,PHLSPPGLPTTP,0.685 ± 0.055
11,ASTFADASSALV,0.71 ± 0.014
12,PFYLPPSTPPLL,0.739 ± 0.0076
13,TGRLDFSIQYYR,0.6986 ± 0.0069
14,QCFRYSVFVGRG,0.63 ± 0.019
15,TILKKKNRRNKE,0.697 ± 0.024
16,VGCTSFWLAILR,0.56 ± 0.026
17,DRLGGVSQVNIQ,0.751 ± 0.042
18,PSPSLPGRSASP,0.727 ± 0.0081
19,GKYKKGNSIAIE,0.598 ± 0.012
20,KTEKTKIKKKRM,0.684 ± 0.0075
21,AFPSLRSLPLFS,0.608 ± 0.024
22,WAKRERRNEGRR,0.71 ± 0.011
23,SSENIQLADQLR,0.702 ± 0.046
24,FSSLHLTHELLS,0.664 ± 0.061
25,RGCRVMATGVGV,0.651 ± 0.022
26,YLSVLQLRCFPA,0.659 ± 0.019

row,Sequence,protein stability index
1,YAYLGSNLKQTA,0.703 ± 0.03
2,TVYRQRRDAPTR,0.727 ± 0.022
3,RCSNWFVGFCPF,0.733 ± 0.062
4,IFVCRCFGFFGG,0.681 ± 0.04
5,YLSPPLLPSFPL,0.728 ± 0.021
6,VCRGFRHQCWYG,0.665 ± 0.013
7,SHLPPRSPPVPS,0.6825 ± 0.0051
8,GGTKGKAGGEAA,0.672 ± 0.043
9,QWSNSRPVGLTG,0.676 ± 0.017
10,PTLGDPSVLLLL,0.69 ± 0.022
11,SSFNSCQFVLSY,0.563 ± 0.011
12,GVLRVRLLAFGL,0.65 ± 0.026
13,SRRSVVRPPCIG,0.656 ± 0.056
14,QRMKHQKVTSNP,0.732 ± 0.06
15,LQDLPRLHALPN,0.727 ± 0.086
16,GRKVPQRRQSAR,0.749 ± 0.015
17,YCLERVPAEYDG,0.67 ± 0.019
18,PTPPLPLPRPLP,0.688 ± 0.037
19,PHPSPSSPPLLP,0.657 ± 0.043
20,SGSVALWVCSVV,0.5878 ± 0.0056
21,VIEWFVRGRGGG,0.693 ± 0.01
22,RPPGQVSEALEW,0.68961 ± 3.4e-05
23,WCSRRIDWSSAP,0.7318 ± 0.002
24,GFAVGDQFIVPL,0.687 ± 0.048
25,SGFVQRLHVICN,0.5706 ± 0.0011
26,SLSLFYFRFFPF,0.661 ± 0.05

row,Sequence,protein stability index
1,GGTCWEGEVVDV,0.641 ± 0.029
2,RGRRRAADRSLR,0.749 ± 0.14
3,SPPPPRAPTPPP,0.698 ± 0.035
4,ARRGAGGGHKGD,0.673 ± 0.038
5,WSSGLHHLPPSP,0.706 ± 0.091
6,IKKKKEEKKKKK,0.586 ± 0.023
7,TGCEVSINSCVE,0.656 ± 0.046
8,GGGVSFWLGVVA,0.6211 ± 0.0026
9,KKKKKRTKKNNH,0.767 ± 0.11
10,GVFASWAWFGVG,0.71 ± 0.046
11,GVCGRWWTCMGV,0.722 ± 0.061
12,RFAGCFSFFRAA,0.683 ± 0.035
13,PSPPVPRPPPSP,0.647 ± 0.018
14,VPRSSGAILGFL,0.637 ± 0.015
15,PLRSLRFYTTLS,0.649 ± 0.018
16,FPPLTRPSPIYP,0.726 ± 0.03
17,LNSSRLSFFCLE,0.689 ± 0.079
18,RRMCARRSAAIV,0.665 ± 0.046
19,PSIPRTSTRPTL,0.706 ± 0.037
20,TSYFRRRRSHSH,0.753 ± 0.01
21,SLPPLDTPPSSC,0.73 ± 0.14
22,SPAGGPSGGEGV,0.674 ± 0.062
23,LLFCFIPCVFWG,0.5096 ± 0.0029
24,PPPTHPHLSSAL,0.73 ± 0.04
25,DLRVSLLSHLSL,0.679 ± 0.11
26,GVVVRGGEWGLD,0.675 ± 0.061

row,Sequence,protein stability index
1,GKADRRKSEHVR,0.733 ± 0.047
2,SPPPRSPRPFPG,0.6757 ± 0.0012
3,PLPFWPPPPRRP,0.674 ± 0.066
4,PSPLPPPPLLPP,0.775 ± 0.28
5,GSCVVRKFGKRS,0.681 ± 0.016
6,KFVSQLGQRTRF,0.745 ± 0.05
7,QSNQEETRQDGT,0.687 ± 0.0084
8,SSGVCSGTSALN,0.681 ± 0.033
9,SLGCLLENRRGL,0.641 ± 0.015
10,SEAGSVMPIGLV,0.642 ± 0.082
11,PLLSCLFLLFFL,0.526 ± 0.0065
12,SRPRSPPPPPIT,0.819 ± 0.054
13,EINSIEQESGTT,0.677 ± 0.019
14,YIGSVCLCVSPV,0.5999 ± 0.0038
15,RGRAPLRRPPGP,0.717 ± 0.048
16,PSSSPPLLPPPA,0.638 ± 0.026
17,WGKRGGLGALSR,0.653 ± 0.06
18,SSSRCPRLPLPS,0.6358 ± 0.0012
19,WVTCALVVQSRF,0.693 ± 0.0073
20,PARGPTPHIVPR,0.667 ± 0.053
